The text below walks through data of patent US20220340682A1 (Sanofi, published 2022).

Common to all, as to test: ELISA
(In an ELISA, binding on a coated surface is turned into a signal by an enzyme label.)

The target of assay [1] is T1, cCEACAM8, M. fascicularis CEACAM8 ECD (35-332) (Macaca fascicularis).
T1 construct: With 24 amino acid extension containing a His-Tag; also called cynomolgus CEACAM8
T1 chain: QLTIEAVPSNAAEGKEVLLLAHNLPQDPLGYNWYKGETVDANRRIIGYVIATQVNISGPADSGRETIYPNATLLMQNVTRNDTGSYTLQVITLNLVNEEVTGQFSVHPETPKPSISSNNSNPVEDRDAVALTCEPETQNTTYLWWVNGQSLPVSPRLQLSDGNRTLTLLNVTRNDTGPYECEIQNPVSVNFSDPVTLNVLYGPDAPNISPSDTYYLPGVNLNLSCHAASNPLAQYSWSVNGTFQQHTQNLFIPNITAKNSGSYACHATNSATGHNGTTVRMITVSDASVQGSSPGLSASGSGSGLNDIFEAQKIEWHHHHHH

In assay [2] the target is T2, cCEACAM6, M. fascicularis CEACAM6 ECD (35-327) (Macaca fascicularis).
T2 construct: With 24 amino acid extension containing a His-Tag; also called cynomolgus CEACAM6
T2 chain: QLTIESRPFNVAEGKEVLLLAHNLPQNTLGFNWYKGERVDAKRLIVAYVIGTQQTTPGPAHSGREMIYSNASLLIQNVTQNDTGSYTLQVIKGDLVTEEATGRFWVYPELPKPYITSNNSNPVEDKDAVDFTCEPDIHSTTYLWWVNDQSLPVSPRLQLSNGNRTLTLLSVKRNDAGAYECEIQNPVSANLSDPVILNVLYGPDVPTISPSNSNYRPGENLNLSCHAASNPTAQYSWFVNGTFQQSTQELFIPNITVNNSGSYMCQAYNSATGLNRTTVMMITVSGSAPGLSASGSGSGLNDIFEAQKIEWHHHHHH

Assay [3] deals with T3, cCEACAM1, M. fascicularis CEACAM1 ECD (35-428) (Macaca fascicularis).
T3 construct: With 24 amino acid extension containing a His-Tag; also called cynomolgus CEACAM1
T3 chain: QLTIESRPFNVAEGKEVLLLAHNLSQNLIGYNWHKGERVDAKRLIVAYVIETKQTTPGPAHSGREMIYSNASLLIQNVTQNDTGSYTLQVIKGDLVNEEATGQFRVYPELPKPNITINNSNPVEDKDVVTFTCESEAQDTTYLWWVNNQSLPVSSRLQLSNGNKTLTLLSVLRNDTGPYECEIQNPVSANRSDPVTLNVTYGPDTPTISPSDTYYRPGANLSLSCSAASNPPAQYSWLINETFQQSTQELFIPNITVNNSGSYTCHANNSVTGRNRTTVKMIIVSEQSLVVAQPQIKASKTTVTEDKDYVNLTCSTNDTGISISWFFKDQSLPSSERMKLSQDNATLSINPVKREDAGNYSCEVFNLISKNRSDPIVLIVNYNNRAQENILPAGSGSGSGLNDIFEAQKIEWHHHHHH

Assay [4] addresses T4, cCEACAM5, M. fascicularis CEACAM5 ECD (35-688) (Macaca fascicularis).
T4 construct: ECD followed by a 24 amino acid extension containing a His-Tag; also called cynomolgus CEACAM5; monkey CEACAM5
T4 chain: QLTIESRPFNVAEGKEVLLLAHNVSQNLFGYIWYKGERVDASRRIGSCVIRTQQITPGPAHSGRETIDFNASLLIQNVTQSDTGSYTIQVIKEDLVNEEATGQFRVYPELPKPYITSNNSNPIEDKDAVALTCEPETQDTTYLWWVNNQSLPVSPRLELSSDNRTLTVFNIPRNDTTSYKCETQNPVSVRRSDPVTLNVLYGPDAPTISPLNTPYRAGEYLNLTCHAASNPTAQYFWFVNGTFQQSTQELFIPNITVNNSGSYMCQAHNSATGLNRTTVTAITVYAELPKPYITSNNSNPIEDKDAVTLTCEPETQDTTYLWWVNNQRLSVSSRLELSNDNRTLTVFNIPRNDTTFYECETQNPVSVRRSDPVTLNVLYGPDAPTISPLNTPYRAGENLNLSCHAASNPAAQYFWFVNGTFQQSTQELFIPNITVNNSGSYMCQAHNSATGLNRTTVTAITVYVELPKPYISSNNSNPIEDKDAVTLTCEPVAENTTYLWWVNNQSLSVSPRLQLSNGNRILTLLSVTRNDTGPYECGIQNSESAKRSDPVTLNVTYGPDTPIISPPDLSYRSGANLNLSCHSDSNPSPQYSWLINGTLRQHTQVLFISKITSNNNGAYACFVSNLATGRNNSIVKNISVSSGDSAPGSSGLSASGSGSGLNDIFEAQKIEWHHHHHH

B1: huMAb2-3 (antibody, human IgG1, kappa, V domains shown)
VH: EVQLQESGPGLVKPGGSLSLSCAASGFVFSSYDMSWVRQTPERGLEWVAYISSGGGITYAPSTVKGRFTVSRDNAKNTLYLQMNSLTSEDTAVYYCAAHYFGSSGPFAYWGQGTLVTVSS
VL: DIQMTQSPASLSASVGDRVTITCRASENIFSYLAWYQQKPGKSPKLLVYNTRTLAEGVPSRFSGSGSGTDFSLTISSLQPEDFATYYCQHHYGTPFTFGSGTKLEIKR
notes: Humanized MAb2, human IgG1 / Ckappa; also called MAb2_VL1cVH1a-IgG1
Turning to B1, the “percentage of binding compared to full binding with cynomolgus CEACAM5” value (from here on “percentage of binding”) in assay [1] came out at 1.2%; in assay [2], 0.4%; in assay [3], 0.3%; in assay [4], 100%.

B2: huMAb2-1 (antibody, V domains shown)
VH: EVQLQESGPGLVKPGGSLSLSCAASGFVFSSYDMSWVRQTPERRLEWVAYISSGGGITYFPSTVKGRFTVSRDNAKNTLYLQMNSLTSEDTAIYYCAAHYFGSSGPFAYWGQGTLVTVSA
VL: DIQMTQSPASLSASVGDTVTITCRASENIFSYLAWYQQKPGKSPKLLVYNTKTLAEGVPSRFSGSGSGTQFSLTISSLQPEDFGSYYCQHHYGTPFTFGSGTKLEIK
notes: Humanized MAb2 (VL1 + VH1) fused to human IgG1 and human Ckappa constant domains; also called MAb2_VL1VH1-IgG1; MAb2VL1VH1-IgG1
B2: the “percentage of binding” value in assay [1] was 3.6%; in assay [2], 0.3%; in assay [3], 0.3%; in assay [4], 100%.

B3: huMAb2-4 (antibody, human IgG1, kappa, V domains shown)
VH: EVQLQESGPGLVKPGGSLSLSCAASGFVFSSYDMSWVRQTPERRLEWVAYISSGGGITYFPSTVKGRFTVSRDNAKNTLYLQMNSLTSEDTAIYYCAAHYFGSSGPFAYWGQGTLVTVSA
VL: DIQMTQSPASLSASVGDTVTITCRASENIFSYLAWYQQKPGKSPKLLVYNTRTLAEGVPSRFSGSGSGTQFSLTISSLQPEDFGSYYCQHHYGTPFTFGSGTKLEIKR
notes: Humanized MAb2, human IgG1 / Ckappa; also called MAb2_VL1d VH1-IgG1; MAb2_VL1dVH1-IgG1
B3: the “percentage of binding” value came to 3.2% in assay [1], 0.3% in assay [2], 0.3% in assay [3] and 100% in assay [4].

B4: chMAb2 (antibody, human IgG1, kappa, V domains shown)
VH: EVQLQESGGVLVKPGGSLKLSCAASGFVFSSYDMSWVRQTPEKRLEWVAYISSGGGITYFPDTVQGRFTVSRDNAKNTLYLQMNSLKSEDTAIYYCAAHYFGSSGPFAYWGQGTLVTVSA
VL: DIQMTQSPASLSASVGETVTITCRASENIFSYLAWYQQKQGKSPQLLVYNTKTLAEGVPSRFSGSGSGTQFSLKINSLQPEDFGSYYCQHHYGTPFTFGSGTKLEIKR
notes: Chimeric, human IgG1, Ck isotype; also called MAb2-IgG1; chimeric MAb2
B4: the “percentage of binding” value in assay [1] amounted to 1.2%; in assay [2] it was 0.3%; in assay [3], 0.2%; in assay [4] it was 100%.

B5: huMAb2-2 (antibody, V domains shown)
VH: EVQLQESGPGLVKPGGSLSLSCAASGFVFSSYDMSWVRQTPERGLEWVAYISSGGGITYAPSTVKGRFTVSRDNAKNTLYLQMNSLTSEDTAVYYCAAHYFGSSGPFAYWGQGTLVTVSS
VL: DIQMTQSPASLSASVGDRVTITCRASENIFSYLAWYQQKPGKSPKLLVYNTKTLAEGVPSRFSGSGSGTDFSLTISSLQPEDFATYYCQHHYGTPFTFGSGTKLEIK
notes: Humanized MAb2 (VL1a + VH1a) fused to human IgG1 and human Ckappa constant domains; also called MAb2_VL1aVH1a-IgG1; MA2_VL1aVH1a-IgG1
Take B5: the “percentage of binding” value stood at 0.9% in assay [1], 0.3% in assay [2], 0.3% in assay [3] and 100% in assay [4].
